The DeepSol protein solubility set

Assay: soluble on expression in E. coli; label from the status in PepcDB or PDB records

Sequence	soluble on expression in E. coli
MADDGLGDVPMETESMPQYTISHVIEAHKSDTKALAVTQGGCLISGGRDETVKFWAKKGKQYTKTHAFEQPKGITVNSIAYAELADGWRLFVGRRDGTIAVFGPSQAEPYAIFNEHKQNVCCLHINEKATHMLSGSWDSNVIIWPITELNSSSFTTIVCPGHTLSVWALASFPDLPNTYLSASADKTIRMWFGDTTLSVFKGHTDVVRALVVLSSSHFLSAGNDGHIIHWDVASASILRKFATQAHEFIYSMTLSDSHILTTGEDGTLEFWAIDGGKDGNLAIVSEAVIQLPTTNTWDAKVLLNSDIAVAGSDGRIYIMTTDKNRKADDDILDAFDAEVVAKLTAKTERMKQEEHETVTIKVDIDDRPTQLNLKYKKGTDPGLCAQEFLSENNLPIHYLEEITRFIKDRIPEARAFDLKSGKKVIVDGKEYDYALGVNFGKGEPDKQMPFNVNESPQFAAQRFVERHQLPVSVIPSLAGMISQEMDKLSKGAASAQSGYEDPFTGPGRYVPQGSSNSGGHGADPFTGSGRYVPQASNSSGFDTGFSGDPLTGDGGYRASAPENTGSHAVPLSSLPQNKKKPRGPLVPVPDFYIIGLAGKGEKAIAKLKELNEKQDAFQLNPDQINGLEELFVLPTSSNYSSEVTQSAFEMSLQWPVEHLTPVLDFLRIALTHHSLNSYFCDRERGQELVGRLIAILVSDPADVALKVLVCRCIANAFSHPVGRNLFASTELSTLAPLVVRQVLNEKTVLQMSAATALANWSLALLQQSEQCEQLGPKEDLLRAILNGIESVDSFGYLGEDAIIRLLQALVTVMWGDASVIRLAKNRNIAQIAARLKDAVSNDSGKNIARDIVEMTYAV	not soluble
MADEINEIREEQEQLAPFDPSKKKKKKKVVIQEPVEDLAESSQTEKSDSLPVNDGLESSFTGMKKKKKKPTESSLLNNESVDAGEDLDEIANDEQEGEEGIVLQQRYPWEGSERDYIYDELLGRVFNILRENNPELAGDRRRTVMRPPQVLREGTKKTVFVNFMDLCKTMHRQPDHVMQYLLAELGTSGSLDGQQRLVVKGRFAPKNFEGILRRYITDYVICLGCKSPDTILSKENRLFFLRCEKCGSQRSVAPIKTGFVARVSRRKT	soluble
MADLQKNFQTSFRDAMASCAAGVHVITTDGAAGRYGITMTAVAPVTDEPPTVMLCINRSARIIPILSENGSLCINTLADEHQDVAEHFAGLTGLSPEERFAYHIWHRGKTGQLEIEGALAHLHGHIVGKHEIGTHFVFYVRLDEIKNCGCKRPALLYFRRQFRFLD	not soluble
MADNGNEEDRNGYIINRTRFAADFHNRNEDLSEWEEMRGIEWDLILHSDGGQLYTQLVTRSRLQYEIPCKFLLEAQYGQVKVGENFDVTVSSRNHTFGMRIDQPADNGAIKITAYIDF	not soluble
MADNYVIWFENLRMTDVERVGGKNASLGEMISQLTEKGVRVPGGFATTAEAYRAFLAHNGLSERISAALAKLDVEDVAELARVGKEIRQWILDTPFPEQLDAEIEAAWNKMVADAGGADISVAVRSSATAEDLPDASFAGQQETFLNINGLDNVKEAMHHVFASLYNDRAISYRVHKGFEHDIVALSAGVQRMVRSDSGASGVMFTLDTESGYDQVVFVTSSYGLGENVVQGAVNPDEFYVFKPTLKAGKPAILRKTMGSKHIKMIFTDKAEAGKSVTNVDVPEEDRNRFSITDEEITELAHYALTIEKHYGRPMDIEWGRDGLDGKLYILQARPETVKSQEEGNRNLRRFAINGDKTVLCEGRAIGQKVGQGKVRLIKDASEMDSVEAGDVLVTDMTDPDWEPV	not soluble
MADSELQSAIGNNEECVNLFSDCDNVFVVAGISPLIDFQNNLNRIENYLCQKKIVGVKLYPGHEQFYLNDPRLESVFLLCEAFDVPVAVHTGWDNPHFNAPALFADIAGKHPKLKIVNCHLWYPKIDYCYEVTRDYQNIYYDISSLADDKGNKSKITEVLHRIANENPHRLIFGSDYGMCDPMAHIELVDRLPVSDETREMIFYKNAVGLYGLSRING	soluble
MADSGTAGGAALAAPAPGPGSGGPGPRVYFQSPPGAAGEGPGGADDEGPVRRQGKVTVKYDRKELRKRLNLEEWILEQLTRLYDCQEEEIPELEIDVDELLDMESDDARAARVKELLVDCYKPTEAFISGLLDKIRGMQKLSTPQKK	soluble
MADSLDRLYQAVLAARDLDPATSRTARLFQRGSGKMAKKLAEEAIEVVIDAVNGNREAVIRESADLLYNLTVLWASAGVRPEDVWAEMRRRENLLGIAEKLPKSRIGKPAAPHATRRPVIPQEARAVRKHR	not soluble
MAEAGDENLYAAARDIARALGKDPSAAGDILQILSGYGASGNRGGDPRPTPSRGGSNVNFDRALTSLERQISSYIVEDRPIWSDPVDSRTFLDSVDELLAIAGDLRSMAGDKSVAVCQSRADELIQQVMFRLQEEFGFVMDRAPDSFDSDDEFPGEEDNDTSDGVIVARPITDYKIVIEALQSSVIGDLNAIAVRMVAGGFAKECSRVYSSRRREFLEESLSRLHLRGLSMEEVQESPWQDLEDEIDRWIKAVTLIFHVFFPSERLLCDRVFSDLPVSSVTDLSFMEVCRGTTTQLLNFADAIALGSRLPERLFKVVDLYEAMQDLIPKMETLFSDRYCSPLRHEALAIHKRLGEAIRGIFMELENLIRRDPPKTAFPGGGIHPITRYVMNYLRAACKSRQSLEQILDQTGNETGSDTRPLSVQIIWVLELLESNLEGKKRTYRDPSLCFLFMMNNDKYILDKAKDNELGLVLGEDWIVKHAAKLRQYHSNYRRSSWNQVVGLLRTDGPYPKLVENLRLFKSQFDEVCKVQSQWVVSDGQLREELRSSVAGIVSPAYSNFIRRLKESPEINGRRGEPFIPYTVEDVEFIIKRLFKESSS	soluble
MAEEVRAFSLPSRRVVLQDEKMEQDEEHSSPTRSTSSNSDEPTETIESGDQFDVNEPIPTIETLEPVIISAASVQQLPAISLSGNNAQRTLWIGDVPTDWTEETLSQVFTECGHAPYKVKRVYVKDELKGYCFIEFITFDEARQTLYDLNGNRIPGFKDIRFNLCFANDSYNPNSEFNLHVSSVPDDMADAELYRIFDKYQSCRGAKMFRFVDGSSKGSGFVRFGNQTDQQMALVEMHRTKVGGCRIILKLAGSRGERLDRGESRQFKSQRNDRRRDEKSGQYRNGTAVPQQTQVYDAYGNPVVVPVDKNIYGTDHPWGPFPDDPDLDSIIGLDLLTTKYRPQIANKRLMIDTDQFMLDLESSRWSSIAFNTNIKKEDFEKRITDNPWTAVP	not soluble
MAEGVADRIIGLYSLGNSTREISDWLKENLGNRVSDETISSITDRVLPEIKVWRSRILDDVYSIVWINAIHYKVTDERGCTVTRAIYNVLGIDKEGHKDLLGMYISKNEGANFWLNVLTDLQNRGVHDILIAYVDGLKGWMPPKVFFRTQYYNFVSSTRYGTPLNMSVVSIRRNSSKT	not soluble
MAEHNELGKAGENAAVAYLEEHGYLIRHRNWRKGHFELDIVAAKENELVIVEVKTRSNTLFAQPEEAVDLPKIKRTVRAADAYMKLFQIDVPVRFDIITVIGENGNFRIDHIKEAFYPPLF	not soluble
MAEKFIKHTGLVVPLDAANVDTDAIIPKQFLQKVTRTGFGAHLFNDWRFLDEKGQQPNPDFVLNFSQYQGASILLARENFGCGSSREHAPWALTDYGFKVVIAPSFADIFYGNSFNNQLLPVKLSDAEVDELFALVKANPGIHFDVDLEAQEVKAGEKTYRFTIDAFRRHCMMNGLDSIGLTLQHDDAIAAYEAKQPAFMR	not soluble
MAEKRKLLAEIDKCFKKIDEGVELFEETMEKMHEANSDNQRDKYQDDLKKEIKKLQRLRDQVKNWQNASEIKDKDKLNSYRKLIEQRMEQFKDVERENKTKPHSKLGLSAEEKLDPKEKEKAETMDWIQHQIRSLNEEVDRTEMQLESLSNTDTGKGKRGKKEDAKTKNEREKRVEGLKHHLERINFHIEKLEICMRMISNESLNAKMVLETLKEPIETYVEMMNEEDSEEADNYDPDDAYDELNLEKLCQQIGGVNVASVDDEHRENGHELGIDTAESGAVSGSRHTSGENGQPPSPAGRRIVPLSMPSPHAVTPELKRLASKDSNVDRPRTPPVTPASAAPPPPGIPYNSVAAGRSTTTPVPSTPISANSPAPSLAQAAPIAAASPVFPPAAAAASKPVLAQSVSEMPQKKESITSTTSRGSAAAPATTTTTTTTTTSSEPAEVPLVVQQTVSETFVNGVDSPAAATRLTQQERQQQLQQQHHHQSTIIPTTPTTTTTSSSMLGGMMSTDDPAAALQAALNMAAASQQAVATGPKRAHIPAWLGASPLGRTSMTQEFDGQLAALELACAKATFPLDSEKPRNYLSKVSFPVPSWYGQTAPNTSDSLEYYLRLAPDTLFFIFYYMEGTRAQLLAAKALKKLSWRFHTKYLTWFQRHEEPKQITDDYEQGTYVYFDFEKWSQRKKESFTFEYKFLEDKEFD	not soluble
MAEMSEKTPELGDALRVGARVLVRRPSETAATGAAVEDCADLVPAQDRGHEWAPVPRWAVALDDGRLVFADTEDLTVNPSPGAPEGEIGKAVEPK	not soluble
MAEVITLSDDDDDVIPLTPRPPVVLKTSTTANHGNNSQATVHVSTGKNLNFDQIGIRRLSDVYNKNQPAFRGNEIPTGIRNSRPSLPATAILQNPQFLVQLAAKGLKRPFSSVHSTPAVVPSTSIQRTRNNQNAGNTPNIYKGHYMFEATESYEPSRRSSRYNTKKIEGKFMCSYNPTKCYKLCGSVVEVINHIWAHVIHDPPLPPIEKKESKDDGMFSCLLRNSDAAQLAENSALSLKRLQTCQFCNAVFRTVHLKTIHVVKCHMEQDHLDTTCNICELDFGNSIALNTHMKKHISGEAPYNCQKCKYRTSVRAFFYQHFIEKHSNETLLCPICLHHEDLRPNVRRSKHIFVREFVNHMRSHALGPQMRCHVCALTFTSRLLLEAHRTNDHTMLNSLWQVIERKSVHETEREHMSKRNKIGLLQRRFFETLEGRRINDEVACAGDKEREGFDLTTTGDTLFECECGFKSWNGNRTASHYHKCRRSINDIERKREIVRLGSDPKEELELFAVYPQPTNTEAETEEATLRKIHLERGDPLPILEDIVYQPIDDLPLLKMLSKNHDKSLEIMEKCTASAVTTED	not soluble
MAFDDLRSFLQALDDHGQLLKISEEVNAEPDLAAAANATGRIGDGAPALWFDNIRGFTDARVAMNTIGSWQNHAISLGLPPNTPVKKQIDEFIRRWDNFPIAPERRANPAWAQNTVDGEEINLFDILPLFRLNDGDGGFYLDKACVVSRDPLDPDNFGKQNVGIYRMEVKGKRKLGLQPVPMHDIALHLHKAEERGEDLPIAITLGNDPIITLMGATPLKYDQSEYEMAGALRESPYPIATAPLTGFDVPWGSEVILEGVIESRKREIEGPFGEFTGHYSGGRNMTVVRIDKVSYRSKPIFESLYLGMPWTEIDYLLEHHHHHH	not soluble
MAFELSPSDLEPLLQGACFFGSGGGGTMISARHLAANFRKGDYYPTDKVRVVDVDEATDGDCVMVAYMGAPDAINQVQWPNGPVEAALAARQRLESQGRKLAYVVAPESGALGFVVASLVAAKLGLAVVDADGAGRAVPSLPMLTYAAAGVPPTPAFLAGESGLCVELGVRMPPPDGQRREDISTVVEQMLRPILTNPQFGQFGGLAMWMMSPAQLGGALPVRGTLSRALKLGRALQDGKVKTAEAMLDFLRRELDIKGKLLFGPATLASSEVSTAGGFDLGKVVLEDGERRCTVLYQNESLLAWDSALSHPLATAPDAISYFVEGEGQHVFSNGDLSGNDHGLDPSVRGRKAAVIALPAAAPLSEGLILQSFADELAQLGYLGPYAPVDAGREGARLEHHHHHH	soluble
MAFLSTSVLIKCCILLLAGGLAESLTLGLAPALSTHSSGVSTQSVDLSQIKRGDEIQAHCLTPAETEVTECAGILKDVLSKNLHELQGLCNVKNKMGVPWVSVEELGQEIITGRLPFPSVGGTPVNDLVRVLVVAESNTPEETPEEEFYAYVELQTELYTFGLSDDNVVFTSDYMTVWMIDIPKSYVDVGMLTRATFLEQWPGAKVTVMIPYSSTFTWCGELGAISEESAPQPSLSARSPVCKNSARYSTSKFCEVDGCTAETGMEKMSLLTPFGGPPQQAKMNTCPCYYKYSVSPLPAMDHLILADLAGLDSLTSPVYVMAAYFDSTHENPVRPSSKLYHCALQMTSHDGVWTSTSSEQCPIRLVEGQSQNVLQVRVAPTSMPNLVGVSLMLEGQQYRLEYFGDH	soluble
